Measurements as given in PMC5589656, “Disruption of DNA repair in cancer cells by ubiquitination of a destabilising dimerization domain of nucleotide excision repair protein ERCC1” (Oncotarget, 2017).

Biological target: the molecule itself
Assay: semi-native western blot (SDS PAGE gel, non-boiled and non-reduced samples); input samples of ERCC1-transfected A375 cells, blotted with anti-ERCC1 antibody; with or without 25 uM cisplatin for 5 h

B1: ERCC1 (1-297), full-length wild-type human ERCC1, Myc-tagged and Flag-tagged copies (natural protein, UniProt P07992 1-297, looked up)
chain: MDPGKDKEGVPQPSGPPARKKFVIPLDEDEVPPGVAKPLFRSTQSLPTVDTSAQAAPQTYAEYAISQPLEGAGATCPTGSEPLAGETPNQALKPGAKSNSIIVSPRQRGNPVLKFVRNVPWEFGDVIPDYVLGQSTCALFLSLRYHNLHPDYIHGRLQSLGKNFALRVLLVQVDVKDPQQALKELAKMCILADCTLILAWSPEEAGRYLETYKAYEQKPADLLMEKLEQDFVSRVTECLTTVKSVNKTDSQTLLTTFGSLEQLIAASREDLALCPGLGPQKARRLFDVLHEPFLKVP
notes: ERCC1, human, full length, residues 1-297 (297 amino acid protein); Self-association was tested with two differently tagged copies; Each copy carries only one of the two tags: the Myc-tagged copy was precipitated and the Flag-tagged copy was detected; The Myc copy is in pcDNA3.1(-)/myc-His A, which as far as I recall adds a C-terminal myc-His; Construct details are in the Supplementary …
Q: Which “stoichiometry N” value does the source give for B1 here?
A: 2
